# Source: patent publication US20140120095A1 (Boehringer Ingelheim, published 2014)
# Legend:
# recombinant human DLL4 [1] = biological target: T1, recombinant human DLL4 (human, UniProt Q9NR61 25-522); assay: competition AlphaScreen, biot-hDLL4/hNotch1-Fc
# T1 construct: also called rhDLL4; hDLL4
# Method: In brief, 1 nM biotinylated human DII4 is captured on streptavidin-coated donor beads (20 μg/mL), while 0.4 nM of the receptor human Notch1 (as a Fc fusion protein) is captured on anti-human Fc VHH-coated acceptor beads (20 μg/mL). Both loaded beads are incubated together with a dilution range of the competing VHH (FIG. 4 A-E).
# recombinant human DLL4 [2] = biological target: T1, recombinant human DLL4; assay: SPR Biacore T100, hDLL4 on chip, VHH/Fab injected
# recombinant human DLL4 [3] = biological target: T1, recombinant human DLL4; assay: Biacore off-rate, periplasmic extract
# recombinant human DLL4 [4] = biological target: T1, recombinant human DLL4; assay: binding ELISA, coated rhDLL4
# Method: In order to determine cross-reactivity to mouse DII4 a binding ELISA is performed. […] Wells are blocked with a casein solution (1% in PBS). VHHs are applied as dilution series and binding is detected using a mouse anti-myc (Roche) and an anti-mouse-AP conjugate (Sigma, St Louis, Mo., USA) (FIG. 7 A-H). As reference, binding to human DII4 is measured.
# [5] = biological target: T2, mouse DLL4 overexpressed on cells (mouse, UniProt Q9JI71 27-686); assay: FMAT, labelled hNotch1-Fc on CHO-mDLL4, periplasmic extract
# T2 construct: whole, on cells; also called CHO-mDLL4; CHO-mDII4
# T2 sequence (Q9JI71 27-686): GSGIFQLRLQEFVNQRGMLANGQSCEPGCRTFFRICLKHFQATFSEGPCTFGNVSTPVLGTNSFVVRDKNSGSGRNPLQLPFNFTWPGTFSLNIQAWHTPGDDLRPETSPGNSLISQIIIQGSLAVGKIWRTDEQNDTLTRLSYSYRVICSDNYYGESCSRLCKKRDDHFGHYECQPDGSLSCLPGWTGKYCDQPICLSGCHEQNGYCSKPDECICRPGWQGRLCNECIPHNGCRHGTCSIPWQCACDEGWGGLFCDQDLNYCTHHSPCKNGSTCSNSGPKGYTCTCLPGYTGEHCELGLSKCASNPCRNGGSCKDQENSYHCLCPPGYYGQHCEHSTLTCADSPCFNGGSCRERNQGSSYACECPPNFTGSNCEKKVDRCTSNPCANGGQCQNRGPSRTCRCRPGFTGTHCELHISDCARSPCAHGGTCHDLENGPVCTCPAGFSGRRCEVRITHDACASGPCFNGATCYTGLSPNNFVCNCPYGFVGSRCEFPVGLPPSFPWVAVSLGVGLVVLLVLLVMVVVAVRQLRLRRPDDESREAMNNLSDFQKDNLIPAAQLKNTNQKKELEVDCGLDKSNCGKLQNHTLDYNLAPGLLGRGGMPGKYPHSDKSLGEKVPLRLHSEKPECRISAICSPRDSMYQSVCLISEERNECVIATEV
# Source text: (§1) All calculations are based on the FL1_total signal which comprises the average of the fluorescence per well times the number of counts per well.
# [6] = biological target: T3, human DLL4 overexpressed on cells (human, UniProt Q9NR61 27-685); assay: FMAT, labelled hNotch1-Fc on CHO-hDLL4, periplasmic extract
# T3 construct: full length human DLL4 on CHO or HEK293 cells; also called CHO-hDLL4; CHO-hDII4
# Source text: as §1
# [7] = biological target: T2, mouse DLL4 overexpressed on cells; assay: FACS titration on HEK293-mDLL4 cells, MCF
# Method: In order to determine the cynomologus cross-reactivity of the VHHs, a FACS binding experiment is performed. Cynomolgus DII4 expressing HEK293 cells (transient or stable transfection) are used for a titration binding experiment of the VHHs. After a 30 minutes incubation on ice, all samples are washed and detection is performed by applying anti-c-myc˜Alexa647 (Santa Cruz Biotechnology, Santa Cruz, Calif., USA). Human and mouse DII4 overexpressing HEK293 cells are taken as reference. The mean MCF value is determined on the FACS Array and used for calculation of the EC₅₀ value (see FIG. 9 A-E).
# [8] = biological target: T4, human DLL4 expressed on cells (CHO-hDLL4; HEK293-hDLL4) (human, UniProt Q9NR61 27-685); assay: competition FMAT, labelled hNotch1-Fc on CHO-hDLL4 cells
# T4 construct: full length human DLL4 overexpressed on CHO cells (FMAT, FACS) or HEK293 cells (reporter assay)
# [9] = biological target: T5, recombinant human DLL4 (C-terminally His-tagged extracellular domain, R&D Systems) (human, UniProt Q9NR61 25-522, biotinylated in the competition ELISA); assay: cell-based or functional assay
# [10] = biological target: T6, mouse DLL4 expressed on CHO cells (mouse, UniProt Q9JI71 27-686); assay: competition FMAT, labelled hNotch1-Fc on CHO-mDLL4 cells
# T6 construct: whole, on cells; also called mDLL4; CHO-mDLL4
# T6 sequence (Q9JI71 27-686): as above
# [11] = biological target: T5, recombinant human DLL4 (C-terminally …); assay: SPR (Biacore), recombinant human DLL4
# [12] = biological target: T4, human DLL4 expressed on cells …; assay: cell-based or functional assay
IC50 (recombinant human DLL4 [1]),Kd (recombinant human DLL4 [2]),koff (recombinant human DLL4 [2]),kon (recombinant human DLL4 [2]),koff (recombinant human DLL4 [3]),EC50 (recombinant human DLL4 [4]),% inh [5],% inh [6],EC50 (read off the curve) [7],IC50 [8],"IC50, DLL4-mediated HUVEC proliferation assay [9]","Inhibition (%), DLL4-mediated HUVEC proliferation assay [9]",IC50 [10],Kd [11],koff [11],kon [11],"IC50, DLL4-mediated reporter assay (hDLL4) [12]",Binder
–,–,–,–,–,–,–,–,–,11.4 nM,14.5 nM,100%,50.8 nM,1 nM,0.00052 s⁻¹,550000 M⁻¹ s⁻¹,112 nM,"DLLBII136C07 (VHH, not shown: small tags and cut ends) VHH: EVQLVESGGGLVQPGGSLRLSCAASGFTFGSYDMSWVRRSPGKGPEWVSSINSGGGSTYYADYVKGRFTISRDNAKNTLYLQMNSLKPEDTAVYYCAADRYIWARQGEYWGAYEYDYWGQGTQVTVSS"
–,–,–,–,–,–,–,–,–,8.2 nM,3.7 nM,100%,15.9 nM,0.2 nM,7.9e-05 s⁻¹,340000 M⁻¹ s⁻¹,108 nM,"DLLBII129B05 (VHH, not shown: small tags and cut ends) VHH: EVQLVESGGGLVQAGGSLRLSCAASGRTFSSYAMAWYRQAPGKEREYVAAIRWSGGTAYYADSVQGRFTISRDNAKNTVYLQMNSLKPEDTAVYYCANRAPDTRLAPYEYDHWGQGTQVTVSS"

# Continued, binder first:
Binder,IC50 (recombinant human DLL4 [1]),Kd (recombinant human DLL4 [2]),koff (recombinant human DLL4 [2]),kon (recombinant human DLL4 [2]),koff (recombinant human DLL4 [3]),EC50 (recombinant human DLL4 [4]),% inh [5],% inh [6],EC50 (read off the curve) [7],IC50 [8],"IC50, DLL4-mediated HUVEC proliferation assay [9]","Inhibition (%), DLL4-mediated HUVEC proliferation assay [9]",IC50 [10],Kd [11],koff [11],kon [11],"IC50, DLL4-mediated reporter assay (hDLL4) [12]"
"DLLBII56A09 (VHH, also called 56A9; DLLBII56A9) VHH: EVQLVESGGGLVQPGGSLRLSCAASGFTFDDYAIGWFRQAPGKEPEGISCISSSGGITYYADSVKGRFTTSRDNAKNTVYLQMNSLKPEDTAVYYCATPGIAACRGIHYTGQGTQVTVSS",1.2 nM,5.6 nM,0.00093 s⁻¹,170000 M⁻¹ s⁻¹,0.0011 s⁻¹,3.6 nM,–,–,–,–,–,–,–,–,–,–,–
"DLLBII115A05 (VHH, also called 115A5; DLLBII115A5) VHH: EVQLVESGGGLVQPGGSLRLSCAASGFTFGSYDMSWVRRSPGKGPEWVSSINSGGGSTYYADFVKGRFTISRDNAKNTLYLQMNSLKPEDTAVYYCAADRYIRARQGDYWGAYEYDYWGQGTQVTVSS",5 nM,25 nM,0.0039 s⁻¹,150000 M⁻¹ s⁻¹,0.0031 s⁻¹,5 nM,84%,74%,~30 nM,–,–,–,–,–,–,–,–
"DLLBII101G08 (VHH, also called 101G8; DLLBII101G8) VHH: EVQLVESGGGLVQAGGSLRLSCAASGRTFSSYAMAWFRQAPGKEREFVAAIRWSGGTAYYADSVQGRFTISRDNAKNTVYLQMNSLKPEDTAVYYCANRAADTRLGPYEYDYWGQGTQVTVSS",–,52 nM,0.0022 s⁻¹,43000 M⁻¹ s⁻¹,0.0021 s⁻¹,8.9 nM,92%,91%,~40 nM,–,–,–,–,–,–,–,–
